This note sets out measurements from US10973840B2, “Methods of sensitizing tumor cells to weak base chemotherapeutic drugs” (SOCPRA SCIENCES SANTÉ ET HUMAINES S.E.C., priority 2017, dated 2021).

In assay [1] the test system is HT-1080 overexpressing NHE6^527-588 peptide. Nature of the assay: MTT cell viability assay in HT-1080 expressing NHE6^527-588 or scrambled peptide. The following applies: HT-1080, overexpression of the fragment. In kind it is cell-based, human. As to the method: peGFP-N3-NHE6 was generously provided by Hiroshi Kanazawa (Osaka University, Japan). pcDNA3-HA/NHE6 was constructed from peGFP-N3-NHE6. For this, the entire NHE6 coding sequence was excised with BamHI and EcoRI restriction enzymes and cloned in pcDNA3-HA vector. pcDNA3-HA/NHE6^527-588 was designed from pcDNA3-HA/NHE6 using the following primers: […]
HT-1080 cells were stably transfected with Polyethylenimine (PEI, MirusBio) and positive cells were selected with Geneticin™ (G418) at 400 μg/mL. In the case of MDA-MB-231 cells, plasmids were transfected using Lipofectamine™ 2000 ([…]) and G418 was added to cell cultures at a concentration of 2 mg/mL.
Cells (5×10^3) were cultured in 96-well plates and pre-incubated under 21% O2 or 1% O2 for 4 h following the addition of drugs for 72 h. Cell viability was measured using the 3-(4,5-dimethylthiazol-2-yl)-2,5-diphenyltetrazolium bromide (MTT) dye (Life Technologies) according to manufacturer's instructions. Because hypoxic conditions may affect the reduction of MTT to formazan, incubation of all cell cultures with MTT were performed under normoxic conditions. Each experiment was performed in triplicate and at least three independent experiments were performed. Log-scale dose-response data were plotted on a graph and a three-parameter non-linear regression was applied to determine IC50 values. For calculation of the IC50s, both normoxic and hypoxic drug-treated samples were normalized with their untreated counterpart.
The middle portion (position 527-588) of the NHE6 cytoplasmic tail has previously been reported to interact with RACK1^31. Stable HT-1080 cells expressing the NHE6^527-588 fragment or a scrambled counterpart were generated.
In general terms: Tetrazolium dyes change colour on reduction, which living cells bring about.

Assay [2] has as its system HT-1080 cells. Nature of the assay: Intracellular localization of Dox by confocal live-cell imaging, HT-1080. In kind it is cell-based, human. The following applies: HT-1080, expression of the peptide, 1% O2, 4 h. As to the method: Cells were cultured in 25 mm-diameter glass coverslips (Thermo Fisher Scientific) and incubated under various conditions (as indicated in the FIG. legends). Cells were then incubated for 2 h in a medium containing Dox (2 μM). After the incubation period, cells were washed to remove excess Dox and left in drug-free media for 10 min. […] Coverslips were mounted on glass slides and placed on a 37° C. warmed stage of an Olympus Fluoview™ FV1000 (Olympus, Tokyo, Japan) confocal laser scanning microscope. Dox was excited with a green helium neon laser (543 nm) and emitted fluorescence intensity was measured. Images were acquired on the same day, typically from 10-20 cells of similar size from each experimental condition, using identical instrument settings.

Assay [3] concerns HT-1080 cells. Nature of the assay: Intracellular pH measurement (HPTS/SNARF-1) by confocal microscopy, HT-1080. In kind it is cell-based, human. The following applies: HT-1080, expression of the peptide, 1% O2, 4 h. How it is done:
The pH sensing ratiometric dyes SNARF-1 and HPTS (Life Technologies) were used simultaneously for pH measurement of both cytoplasmic (C-SNARF-1) and endosomal/lysosomal (HPTS) compartments as previously described^30. Briefly, cells were cultured in 35 mm petri dishes (BD Biosciences) and used at 50% confluence. For endocytic labeling, cells were incubated overnight with HPTS (1 mM), washed, followed by a 20-min incubation with SNARF-1 (5 μM) to label the cytoplasmic compartment. Living cells were analyzed using an Olympus Fluoview™ FV1000 confocal microscope. Fluorescence emissions of both pH-sensing probes were recorded and subsequently analyzed as described^30.

Another assay relates to NHE6. Nature of the assay: NHE6 localization (cell-surface biotinylation, EEA1 immunofluorescence) in HT-1080. The following applies: HT-1080, expression of the peptide, 1% O2, 4 h. Format: cell-based, human. As to the method: Biotinylation steps were performed at […] Cells were grown on circular 15-mm diameter glass coverslips (Thermo Fisher Scientific) and incubated at 21% or 1% O2. Cells were then washed with PBS containing 1 mM CaCl2 and 0.5 mM MgCl2 (PBSCM) and incubated for 5 min with 0.3 mg/ml of EZ-Link Sulfo-NHS-SS-Biotin (Pierce) in PBSCM. Unreacted biotin was quenched using 100 mM glycine. Cells were fixed for 10 min at room temperature using 1% PFA in PBS. Prior to staining, cells were blocked with 5% of BSA for 1 h at room temperature. Biotinylated cells were stained with 5 μg/ml Streptavidin Texas Red (Invitrogen) for 1 h at 4° C. Coverslips were washed and mounted on a microscope slide using Vectashield mounting media (Vector labs).
Cultured cells were fixed with 1% PFA for 10 min at room temperature, permeabilized with saponin (0.05% in PBS) for 20 min, and blocked with 2% BSA in PBS for 30 min. Cells were then incubated with the appropriate primary and secondary antibodies as follows: anti-EEA1 (1/500), anti-Rab7 (1/500) and fluorophore-conjugated secondary antibodies (1/1000). Images were recorded using an Olympus Fluoview™ FV1000 confocal microscope using a 63× oil immersion objective.

The next assay concerns NHE6-RACK1 interaction. Nature of the assay: Co-immunoprecipitation of NHE6 with RACK1 in HT-1080. In kind it is cell-based, human. The following applies: HT-1080, ectopic expression of the sequence, 1% O2, 4 h. How it is done: Cells were lysed on ice in NP-40-containing buffer (50 mM Tris-HCl pH 8.0, 150 mM NaCl, 1% NP-40, 5 mM EDTA, phosphatase and protease inhibitors). Cell lysates were centrifuged at 13,000 rpm at 4° C. and protein concentration determined using the BCA protein assay (Thermo Fisher Scientific). After a pre-clearing step with protein A/G-agarose beads (GE Healthcare), protein complexes were immunoprecipitated overnight at 4° C. Samples were incubated in SDS-loading buffer for 30 minutes at room temperature to avoid transmembrane protein aggregates upon heating in a boiling water bath. Proteins were separated by SDS-PAGE electrophoresis, transferred to a PVDF membrane and immunoblotting was performed as described, using anti-NHE6 (1:1000), anti-NHE9 (1:1000) anti-RACK1 (1:2000), anti-tubulin (1:5000), anti-actin (1:5000) anti-HA (1:1000), anti-PKC (1:200), anti-phospho PKC substrate (1:1000), anti-LAMP2 (1:200), anti-P-glycoprotein (1:200) and HRP-conjugated secondary antibodies (1/10 000)^66.

In the next assay the test system is HT-1080 tumor xenografts. Nature of the assay: Chorioallantoic membrane (CAM) xenograft assay, HT-1080. Format: in vivo, chick embryo. The following applies: NHE6^527-588-overexpressing HT-1080 xenografts on CAM, 0.5 μM Dox. How it is done: (§1) Fertilized eggs from white leghorn chicken were obtained from Public Health Agency of Canada (Nepean, ON). Ethics approval was obtained from the Ethics Committee on Animal Research of the University of Sherbrooke and all experimental procedures involving embryos were conducted in accordance with the regulations of the Canadian Council on Animal Care. Eggs were incubated in an Ova-Easy egg incubator (Brinsea) at 37° C. with 60% humidity. At Day 3, eggs were cracked as described^67. At Day 9, HT-1080 and MDA-MB-231 cell suspensions (1×10^6 and 2×10^6 cells, respectively) were mixed (1:1) with growth factor reduced Matrigel (BD Biosciences) in a total volume of 20 μl. Cell grafts were placed on top of the CAM and eggs were returned to the incubator for 96 h until Day 13 (n>6 chick embryos per cell line). When mentioned, 50 μl of Dox were added topically to the formed tumors (Day 13 after tumor cell grafting). At Day 16, chick embryos were euthanatized by decapitation. Tumors were removed and tumor volumes were calculated using the formula: (Dd^2/3). For RNA quantification, tumors were immediately snap-frozen in liquid nitrogen and kept at −80° C. until RNA extraction using the Trizol reagent.
(§2) To determine whether these observations were of relevance to tumor therapy in vivo, the inventors used an ex ovo chorioallantoic membrane (CAM) xenograft model in live chicken embryos^40. MDA-MB-231 or HT-1080 cells, or cells expressing either the NHE6^527-588 competing fragment or its scrambled counterpart were inoculated onto the CAM of 9-day-old chick embryos. After allowing 3 days for cells to engraft, tumors were treated with Doxorubicin or PBS. Four days later, chick embryos were euthanized, and tumors were removed for analysis (FIG. 10A). To first ascertain that tumors implanted in CAM developed hypoxia, total mRNA was extracted from tumors generated by untransfected HT-1080 cells and gene expression of the hypoxic markers CA9, GLUT1 and MCT4 was measured by qPCR. […]

In assay [4] the test system is MDA-MB-231 tumor xenografts. Nature of the assay: Chorioallantoic membrane (CAM) xenograft assay, MDA-MB-231. Format: in vivo, chick embryo. The following applies: NHE6^527-588-overexpressing MDA-MB-231 xenografts on CAM, 1 μM Dox. How it is done:
as §1, §2

B1: TKAESAWLFRMWYNFDHNYLKPLLTHSGPPLTTTLPACCGPIARCLTSPQAYENQEQLKDDD (protein)
chain: TKAESAWLFRMWYNFDHNYLKPLLTHSGPPLTTTLPACCGPIARCLTSPQAYENQEQLKDDD
notes: NHE6 cytoplasmic tail fragment 527-588, expressed in cells from a plasmid
For B1, the “increase in drug (Dox) sensitivity” value in assay [1] (hypoxia) was 2.8 fold. Moreover, the “sensitivity of the cells to Dox” value in assay [1] (normoxic conditions) was “did not change”. The “hypoxia-induced diminution in nuclear Dox and Dox accumulation within endosomes” value in the assay on HT-1080 cells [2] is recorded as “greatly impaired”. In the assay on HT-1080 cells [3], the hypoxia-induced intravesicular hyperacidification entry is reported as “greatly impaired”. Also, in the assay on NHE6, the “hypoxia-induced NHE6 relocalization from endosomes to the plasma membrane” value is on record as “greatly impaired”. The “hypoxia-induced interaction of NHE6 with RACK1” value in the assay with NHE6-RACK1 interaction was “prevented”. Further, the “tumor volume compared to xenografts overexpressing a control peptide” value (in the assay on HT-1080 tumor xenografts; in assay [4]) was “small but significant decrease in tumor volume” in each case.
